Experimental findings from the supplement of paper PMC12855868 are described below.

To fix the notation:
B1: library; numbered along this chain (parent)
chain: MAAAGGARLLRAASAVLGGPAGRWLHHAGSRAGSSGLLRNRGPGGSAEASRSLSVSARARSSSEDKITVHFINRDGETLTTKGKVGDSLLDVVVENNLDIDGFGACEGTLACSTCHLIFEDHIYEKLDAITDEENDMLDLAYGLTDRSRLGCQICLTKSMDNMTVRVPETVADARQSIDVGKTS

In this data set the parent is B1. Put plainly: scaled log2 fold change in cell abundance, elesclomol vs control (0 = silent mean, 1 = nonsense mean) (scaled log2 ratio); higher = higher viability under elesclomol (loss of FDX1 cuproptosis function). The following applies: glucose 10 mM. The protocol: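 Deep mutational scan of full-length human FDX1: a pooled saturation-mutagenesis ORF library (every residue 2-184 mutated to all 19 amino acids plus stop, and silent codons where available) was expressed by lentivirus in FDX1-knockout ABC1 (14 days) or HEK293T (11 days) cells grown with elesclomol (ES) or DMSO control. Variant abundance came from ORF sequencing. The log2 fold change (ES vs control, mean of duplicates) was centred on the silent-variant mean (0) and scaled to the nonsense-variant mean (1). Higher values mean greater viability under ES, i.e. loss of FDX1 function in cuproptosis.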

[1] abbreviates: with ABC1 FDX1 KO, elesclomol 5 nM, 14 days.
The mark [2] stands for this setting: with HEK293T FDX1 KO, elesclomol 40 nM, 11 days.
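Also: variant abundance is its share of total variant reads in each endpoint sample, from next-generation sequencing of the integrated ORF PCR-amplified out of genomic DNA.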

MAAAGGARLLRAASAVLGGPAGRWLHHAGSRAGSSGLLRNRMPGGSAEASRSLSVSARARSSSEDKITVHFINRDGETLTTKGKVGDSLLDVVVENNLDIDGFGACEGTLACSTCHLIFEDHIYEKLDAITDEENDMLDLAYGLTDRSRLGCQICLTKSMDNMTVRVPETVADARQSIDVGKTS [G42M]: the “scaled log2 fold change” value runs as follows: under setting [1], 0.0351; under setting [2], 0.622.

With MAAAGGARLLRAASAVLGGPAGRWLHHAGSRAGSSGLLRNRIPGGSAEASRSLSVSARARSSSEDKITVHFINRDGETLTTKGKVGDSLLDVVVENNLDIDGFGACEGTLACSTCHLIFEDHIYEKLDAITDEENDMLDLAYGLTDRSRLGCQICLTKSMDNMTVRVPETVADARQSIDVGKTS [G42I], the “scaled log2 fold change” value under setting [1] worked out at 0.277 and the “scaled log2 fold change” value under setting [2] was 0.513.

With MAAAGGARLLRAASAVLGGPAGRWLHHAGSRAGSSGLLRNRPPGGSAEASRSLSVSARARSSSEDKITVHFINRDGETLTTKGKVGDSLLDVVVENNLDIDGFGACEGTLACSTCHLIFEDHIYEKLDAITDEENDMLDLAYGLTDRSRLGCQICLTKSMDNMTVRVPETVADARQSIDVGKTS [G42P], the “scaled log2 fold change” value reads like this: under setting [1], 0.28; under setting [2], -0.219.

In the case of MAAAGGARLLRAASAVLGGPAGRWLHHAGSRAGSSGLLRNRRPGGSAEASRSLSVSARARSSSEDKITVHFINRDGETLTTKGKVGDSLLDVVVENNLDIDGFGACEGTLACSTCHLIFEDHIYEKLDAITDEENDMLDLAYGLTDRSRLGCQICLTKSMDNMTVRVPETVADARQSIDVGKTS [G42R], the “scaled log2 fold change” value under setting [1] came out at 0.1 and the “scaled log2 fold change” value under setting [2] was -0.362.

As to MAAAGGARLLRAASAVLGGPAGRWLHHAGSRAGSSGLLRNRNPGGSAEASRSLSVSARARSSSEDKITVHFINRDGETLTTKGKVGDSLLDVVVENNLDIDGFGACEGTLACSTCHLIFEDHIYEKLDAITDEENDMLDLAYGLTDRSRLGCQICLTKSMDNMTVRVPETVADARQSIDVGKTS [G42N], the “scaled log2 fold change” value is, setting by setting: under setting [1], 0.133; under setting [2], -0.235.

Consider MAAAGGARLLRAASAVLGGPAGRWLHHAGSRAGSSGLLRNRQPGGSAEASRSLSVSARARSSSEDKITVHFINRDGETLTTKGKVGDSLLDVVVENNLDIDGFGACEGTLACSTCHLIFEDHIYEKLDAITDEENDMLDLAYGLTDRSRLGCQICLTKSMDNMTVRVPETVADARQSIDVGKTS [G42Q], for which the “scaled log2 fold change” value is, setting by setting: under setting [1], 0.242; under setting [2], -0.336.

For the variant MAAAGGARLLRAASAVLGGPAGRWLHHAGSRAGSSGLLRNRKPGGSAEASRSLSVSARARSSSEDKITVHFINRDGETLTTKGKVGDSLLDVVVENNLDIDGFGACEGTLACSTCHLIFEDHIYEKLDAITDEENDMLDLAYGLTDRSRLGCQICLTKSMDNMTVRVPETVADARQSIDVGKTS [G42K], the “scaled log2 fold change” value runs as follows: under setting [1], 0.0974; under setting [2], 0.00685.

As to MAAAGGARLLRAASAVLGGPAGRWLHHAGSRAGSSGLLRNRLPGGSAEASRSLSVSARARSSSEDKITVHFINRDGETLTTKGKVGDSLLDVVVENNLDIDGFGACEGTLACSTCHLIFEDHIYEKLDAITDEENDMLDLAYGLTDRSRLGCQICLTKSMDNMTVRVPETVADARQSIDVGKTS [G42L], the “scaled log2 fold change” value by setting is: under setting [1], 0.249; under setting [2], 0.513.
